Experimental findings from patent US20250277020A1 (Boehringer Ingelheim, published 2025) are described below.

Changes are numbered by the printed parent chain.

The target in the test is T1, Full-length human CTGF (human, UniProt P29279 27-349).
T1 construct: Corresponds to NCBI NP_001892.1 with the signal peptide omitted; purchased from R&D Systems; also called hCTGF full length; full length CTGF
T1 sequence: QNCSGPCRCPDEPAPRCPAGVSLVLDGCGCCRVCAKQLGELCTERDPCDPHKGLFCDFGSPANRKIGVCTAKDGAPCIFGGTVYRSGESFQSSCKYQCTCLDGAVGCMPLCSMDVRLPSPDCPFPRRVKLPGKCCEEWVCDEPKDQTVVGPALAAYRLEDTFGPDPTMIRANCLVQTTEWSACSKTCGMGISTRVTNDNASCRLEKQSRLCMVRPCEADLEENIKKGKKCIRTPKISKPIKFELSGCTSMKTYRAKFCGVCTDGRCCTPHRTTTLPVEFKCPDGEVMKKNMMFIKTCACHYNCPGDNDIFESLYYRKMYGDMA
The test can be described thus: SPR, full length CTGF.

B1: A61 (antibody, human IgG1, kappa, L234A L235A)
light: VVMTQTPLSLPVSLGDQASISCRSSQSIVHYNANTYLEWYLQKPGQSPQLLIYKVSNRFSGVPDRFSGSGSGTDFTLKISRVEAEDLGVYYCFQGSHFPLTFGQGTKLEIKRTVAAPSVFIFPPSDEQLKSGTASVVCLLNNFYPREAKVQWKVDNALQSGNSQESVTEQDSKDSTYSLSSTLTLSKADYEKHKVYACEVTHQGLSSPVTKSFNRGEC
heavy: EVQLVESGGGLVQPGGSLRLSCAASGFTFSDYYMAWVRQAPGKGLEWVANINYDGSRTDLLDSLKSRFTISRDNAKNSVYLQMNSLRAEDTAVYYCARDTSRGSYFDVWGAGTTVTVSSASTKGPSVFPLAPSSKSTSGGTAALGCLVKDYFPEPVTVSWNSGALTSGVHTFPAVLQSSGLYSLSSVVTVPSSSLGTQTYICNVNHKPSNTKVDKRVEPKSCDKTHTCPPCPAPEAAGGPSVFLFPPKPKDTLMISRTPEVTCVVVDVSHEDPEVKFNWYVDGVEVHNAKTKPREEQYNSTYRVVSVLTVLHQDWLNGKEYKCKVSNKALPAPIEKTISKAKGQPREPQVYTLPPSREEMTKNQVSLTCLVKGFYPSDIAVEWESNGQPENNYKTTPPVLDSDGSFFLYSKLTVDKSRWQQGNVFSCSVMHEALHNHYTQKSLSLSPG
Regarding B1, the Kd amounted to 0.35 nM.

B2: A62 (antibody, human IgG1, kappa, L234A L235A, V domains shown)
VH: EVQLVESGGGLVQPGGSLRLSCAASGFTFSDYYMAWVRQAPGKGLEWVANINYEGSRTDLLDSLKSRFTISRDNAKNSVYLQMNSLRAEDTAVYYCARDTSRGSYFDVWGAGTTVTVSS
VL: VVMTQTPLSLPVSLGDQASISCRSSQSIVHYNANTYLEWYLQKPGQSPQLLIYKVSNRFSGVPDRFSGSGSGTDFTLKISRVEAEDLGVYYCFQGSHFPLTFGQGTKLEIKR
In turn, B2 had a Kd of 0.35 nM.

B3: A85 (antibody, human IgG1, kappa, L234A L235A)
light: B1 light with A33E, N34K
heavy: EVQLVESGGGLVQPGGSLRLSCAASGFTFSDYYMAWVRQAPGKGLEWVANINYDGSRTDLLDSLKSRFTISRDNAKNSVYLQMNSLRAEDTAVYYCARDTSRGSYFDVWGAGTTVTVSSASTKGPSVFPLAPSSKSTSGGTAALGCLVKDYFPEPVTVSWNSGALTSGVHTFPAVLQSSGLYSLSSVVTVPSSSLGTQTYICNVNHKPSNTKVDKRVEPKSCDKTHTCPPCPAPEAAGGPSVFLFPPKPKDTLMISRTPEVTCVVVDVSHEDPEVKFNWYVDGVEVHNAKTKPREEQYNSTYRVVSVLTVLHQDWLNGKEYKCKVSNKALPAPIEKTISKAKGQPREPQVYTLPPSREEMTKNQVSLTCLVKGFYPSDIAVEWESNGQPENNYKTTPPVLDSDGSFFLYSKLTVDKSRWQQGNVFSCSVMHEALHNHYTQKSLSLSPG
As to B3, binding was characterised by a dissociation constant (Kd) of 0.28 nM.

B4: A82 (antibody, human IgG1, kappa, L234A L235A, V domains shown)
VH: B2 VH with E54Y, D62E
VL: B2 VL with A33E, N34K
For B4, the dissociation constant Kd amounted to 0.36 nM.

B5: A67 (antibody, human IgG1, kappa, L234A L235A, V domains shown)
VH: B2 VH with D62A
VL: B2 VL with A33T
For B5, binding was characterised by a dissociation constant (Kd) of 0.24 nM. Compared with the last molecule, the Kd is about 1.5-fold lower.

B6: A81 (antibody, human IgG1, kappa, L234A L235A, V domains shown)
VH: B2 VH with D62E
VL: B2 VL with A33E, N34K
The molecule B6 gave an equilibrium dissociation constant (Kd) of 0.29 nM.

B7: A76 (antibody, human IgG1, kappa, L234A L235A, V domains shown)
VH: B2 VH with E54Y, D62A
VL: B2 VL with A33G, N34K
Molecule B7 had a Kd of 0.18 nM.

B8: A78 (antibody, human IgG1, kappa, L234A L235A, V domains shown)
VH: B2 VH
VL: B2 VL with A33G, N34K
B8 showed a Kd of 0.23 nM.

B9: A83 (antibody, human IgG1, kappa, L234A L235A, V domains shown)
VH: B2 VH with D62A
VL: B2 VL with A33E, N34K
The molecule B9 displayed a Kd of 0.26 nM.

B10: A64 (antibody, human IgG1, kappa, L234A L235A)
light: B1 light
heavy: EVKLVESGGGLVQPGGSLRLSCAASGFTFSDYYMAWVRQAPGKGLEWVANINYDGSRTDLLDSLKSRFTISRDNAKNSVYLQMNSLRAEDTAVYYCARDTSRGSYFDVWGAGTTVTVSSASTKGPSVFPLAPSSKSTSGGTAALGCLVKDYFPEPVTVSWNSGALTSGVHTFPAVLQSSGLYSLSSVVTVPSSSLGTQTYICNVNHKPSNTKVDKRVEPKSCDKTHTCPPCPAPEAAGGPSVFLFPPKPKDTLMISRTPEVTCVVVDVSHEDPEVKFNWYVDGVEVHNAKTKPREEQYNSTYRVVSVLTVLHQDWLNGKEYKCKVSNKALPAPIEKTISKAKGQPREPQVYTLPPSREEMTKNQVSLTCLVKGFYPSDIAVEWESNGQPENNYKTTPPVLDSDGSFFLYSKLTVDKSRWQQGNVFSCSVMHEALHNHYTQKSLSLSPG
As for B10, binding was characterised by a dissociation constant (Kd) of 0.32 nM.

B11: A69 (antibody, human IgG1, kappa, L234A L235A)
light: B1 light with A33T
heavy: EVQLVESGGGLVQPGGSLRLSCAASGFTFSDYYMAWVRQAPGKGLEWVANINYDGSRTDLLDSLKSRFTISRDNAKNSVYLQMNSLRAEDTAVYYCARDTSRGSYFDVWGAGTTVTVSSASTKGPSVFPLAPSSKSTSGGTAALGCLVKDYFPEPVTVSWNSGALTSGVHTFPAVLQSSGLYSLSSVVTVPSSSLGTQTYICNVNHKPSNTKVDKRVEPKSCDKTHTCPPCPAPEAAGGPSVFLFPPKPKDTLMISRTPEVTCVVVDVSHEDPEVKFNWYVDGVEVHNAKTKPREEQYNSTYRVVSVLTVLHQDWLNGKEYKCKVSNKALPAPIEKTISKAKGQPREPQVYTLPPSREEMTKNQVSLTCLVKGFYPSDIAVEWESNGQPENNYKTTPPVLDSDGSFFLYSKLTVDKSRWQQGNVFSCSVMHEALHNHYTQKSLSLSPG
B11 yielded a dissociation constant Kd of 0.28 nM. This Kd and that of the molecule before are within 1.5-fold of each other.

B12: A65 (antibody, human IgG1, kappa, L234A L235A, V domains shown)
VH: B2 VH with D62E
VL: B2 VL with A33T
On to B12, for which the Kd stood at 0.27 nM.

B13: A80 (antibody, human IgG1, kappa, L234A L235A)
light: B1 light with A33G, N34K
heavy: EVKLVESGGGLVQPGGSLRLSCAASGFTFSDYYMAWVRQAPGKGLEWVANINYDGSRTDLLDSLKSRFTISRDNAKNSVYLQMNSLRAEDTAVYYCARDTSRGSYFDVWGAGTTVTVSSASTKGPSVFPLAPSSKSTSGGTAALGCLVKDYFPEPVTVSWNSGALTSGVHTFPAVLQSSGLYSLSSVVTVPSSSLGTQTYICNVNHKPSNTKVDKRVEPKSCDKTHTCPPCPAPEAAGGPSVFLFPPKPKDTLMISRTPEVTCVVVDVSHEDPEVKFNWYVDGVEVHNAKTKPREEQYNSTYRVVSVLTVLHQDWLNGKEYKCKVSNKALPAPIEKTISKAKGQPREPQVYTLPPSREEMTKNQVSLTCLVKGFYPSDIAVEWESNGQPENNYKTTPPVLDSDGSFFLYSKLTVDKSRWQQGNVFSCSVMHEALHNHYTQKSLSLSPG
For the molecule B13, the Kd stood at 0.25 nM. This Kd and that of the molecule before are within 1.5-fold of each other.

B14: A87 (antibody, human IgG1, kappa, L234A L235A, V domains shown)
VH: B2 VH with E54D, D62E
VL: B2 VL with A33E, N34K
B14 returned a Kd of 0.34 nM.

B15: A63 (antibody, human IgG1, kappa, L234A L235A, V domains shown)
VH: B2 VH with E54D, D62E
VL: B2 VL
B15 came in with a dissociation constant Kd of 0.34 nM. This counts as sub-nanomolar.

B16: A84 (antibody, human IgG1, kappa, L234A L235A, V domains shown)
VH: B2 VH with E54Y, D62A
VL: B2 VL with A33E, N34K
Regarding B16, the dissociation constant (Kd) worked out at 0.29 nM.

B17: A66 (antibody, human IgG1, kappa, L234A L235A, V domains shown)
VH: B2 VH with E54Y, D62E
VL: B2 VL with A33T
As to B17, the equilibrium dissociation constant (Kd) was 0.25 nM. This Kd and that of the molecule before are within 1.5-fold of each other.

B18: A72 (antibody, human IgG1, kappa, L234A L235A)
light: B1 light with A33T
heavy: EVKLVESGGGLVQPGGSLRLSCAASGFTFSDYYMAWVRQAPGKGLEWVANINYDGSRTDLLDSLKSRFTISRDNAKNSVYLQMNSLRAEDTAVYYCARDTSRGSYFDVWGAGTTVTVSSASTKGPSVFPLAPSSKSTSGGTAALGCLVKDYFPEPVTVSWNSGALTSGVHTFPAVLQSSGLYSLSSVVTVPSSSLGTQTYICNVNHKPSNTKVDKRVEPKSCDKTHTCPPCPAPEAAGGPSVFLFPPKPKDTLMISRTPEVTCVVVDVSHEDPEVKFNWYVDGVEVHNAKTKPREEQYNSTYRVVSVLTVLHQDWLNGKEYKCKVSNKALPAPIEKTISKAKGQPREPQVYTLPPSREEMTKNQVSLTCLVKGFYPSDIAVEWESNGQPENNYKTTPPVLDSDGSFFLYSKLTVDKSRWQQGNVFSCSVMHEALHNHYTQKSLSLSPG
Consider B18, for which the dissociation constant (Kd) was 0.27 nM.

B19: A71 (antibody, human IgG1, kappa, L234A L235A, V domains shown)
VH: B2 VH with E54D, D62E
VL: B2 VL with A33T
As to B19, the dissociation constant (Kd) came to 0.28 nM.

B20: A74 (antibody, human IgG1, kappa, L234A L235A, V domains shown)
VH: B2 VH with E54Y, D62E
VL: B2 VL with A33G, N34K
As for B20, the Kd amounted to 0.2 nM.

B21: A73 (antibody, human IgG1, kappa, L234A L235A, V domains shown)
VH: B2 VH with D62E
VL: B2 VL with A33G, N34K
As to B21, the equilibrium dissociation constant (Kd) is 0.58 nM.

B22: A68 (antibody, human IgG1, kappa, L234A L235A, V domains shown)
VH: B2 VH with E54Y, D62A
VL: B2 VL with A33T
As for B22, binding was put at a Kd of 0.15 nM. Compared with the last molecule, the Kd is about 3.9-fold lower.

B23: A75 (antibody, human IgG1, kappa, L234A L235A, V domains shown)
VH: B2 VH with D62A
VL: B2 VL with A33G, N34K
In turn, B23 showed a dissociation constant (Kd) of 0.17 nM. This Kd and that of the molecule before are within 1.5-fold of each other.

B24: A88 (antibody, human IgG1, kappa, L234A L235A)
light: B1 light with A33E, N34K
heavy: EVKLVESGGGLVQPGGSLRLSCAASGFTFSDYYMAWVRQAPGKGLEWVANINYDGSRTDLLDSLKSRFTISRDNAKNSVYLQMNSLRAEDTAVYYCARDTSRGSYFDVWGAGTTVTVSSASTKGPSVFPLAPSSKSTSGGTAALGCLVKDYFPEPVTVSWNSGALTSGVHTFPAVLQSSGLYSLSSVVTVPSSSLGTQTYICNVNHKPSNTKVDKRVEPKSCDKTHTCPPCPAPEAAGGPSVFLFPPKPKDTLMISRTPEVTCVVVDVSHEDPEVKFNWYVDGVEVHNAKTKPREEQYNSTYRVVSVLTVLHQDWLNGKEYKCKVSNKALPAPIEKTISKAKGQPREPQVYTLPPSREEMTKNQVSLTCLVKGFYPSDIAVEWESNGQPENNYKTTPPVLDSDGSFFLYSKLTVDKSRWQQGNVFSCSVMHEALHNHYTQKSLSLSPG
On to B24, for which binding was put at a Kd of 0.32 nM.

B25: A70 (antibody, human IgG1, kappa, L234A L235A, V domains shown)
VH: B2 VH
VL: B2 VL with A33T
B25 gave a dissociation constant Kd of 0.27 nM.

B26: A79 (antibody, human IgG1, kappa, L234A L235A, V domains shown)
VH: B2 VH with E54D, D62E
VL: B2 VL with A33G, N34K
B26 registered a Kd of 0.16 nM.

B27: A77 (antibody, human IgG1, kappa, L234A L235A)
light: B1 light with A33G, N34K
heavy: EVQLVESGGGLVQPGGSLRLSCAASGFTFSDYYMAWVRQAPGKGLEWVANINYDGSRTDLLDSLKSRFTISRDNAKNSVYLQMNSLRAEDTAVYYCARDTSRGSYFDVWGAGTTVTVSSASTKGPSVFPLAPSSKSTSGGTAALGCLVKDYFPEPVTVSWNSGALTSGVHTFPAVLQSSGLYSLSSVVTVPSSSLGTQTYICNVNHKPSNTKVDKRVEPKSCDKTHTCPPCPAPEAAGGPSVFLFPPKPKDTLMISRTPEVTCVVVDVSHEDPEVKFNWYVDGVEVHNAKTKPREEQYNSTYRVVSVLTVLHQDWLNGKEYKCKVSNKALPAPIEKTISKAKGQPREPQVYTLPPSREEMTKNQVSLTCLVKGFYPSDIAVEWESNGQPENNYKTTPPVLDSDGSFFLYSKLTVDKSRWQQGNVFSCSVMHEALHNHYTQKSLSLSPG
As to B27, the Kd came to 0.23 nM.

What is called Kd is the equilibrium constant for the complex coming apart.
